The text below walks through data of patent US7947876B2 (Nippon Paper Industries Co., Ltd., priority 2004, dated 2011).

Ends that are not written are not given here.

The data set concerns mouse islet. Description: Thermal stability, activity measured by cAMP generation using mouse islet. It is filed as cell-based. To be noted: 15 min at 100° C.; for stability for thermal treatment (activity by cAMP generation): 10 μg/ml in 0.2% BSA solution, versus non-thermal treated control. Here is the method: Further, trypsin treatment was performed, and a monomer GLP-1 derivative was obtained. […] To these thermal treated substances, non-thermal treated substances were prepared similarly as a control. Then, with respect to these substances, the activity was measured by cAMP generation using mouse islet. […] On the other hand, as the synthetic peptide was heat-stable, the 5 linked peptide expressed in rice was estimated to have changed by thermal denaturation to a tertiary structure which would not be easily digested by trypsin.

With “[Ser^8,Gln^26, Asn^34]-GLP-1 (HDEFERHSEGTFTSDVSSYLEGQAAQEFIAWLVNGRG; Glucagon-like peptide 1; UniProt P01275 92-128, looked up, variant A8S K26Q K34N)”, the “activity lower than that of non-thermally treated (cAMP generation)” value (rice in distilled water, then extraction and trypsin treatment, FIG. 8) is listed as “about 33%”. As for “[Ser^8,Gln^26, Asn^34]-GLP-1 (HSEGTFTSDVSSYLEGQAAQEFIAWLVNGR; ends and bridges not checked) [synthetic GLP-1 derivative]”, the “stability for thermal treatment (activity by cAMP generation)” value is “stable”. Take “synthetic native GLP-1: native GLP-1 obtained by synthesis [reference compound]”: the “stability for thermal treatment (activity by cAMP generation)” value is “stable”.
